# Reference: patent US20060199228A1 (KING S COLLEGE LONDON, published 2006)
# Target: T1, HLA-DR4 immunoaffinity-purified from Priess EBV-transformed B cells (DRB1*0401)
# T1 construct: Detergent-solubilised native protein, purified with the anti-HLA-DR mAb L243; Priess cells also carry DRw53, which the L243 column would not separate; The elution used cells pulsed with preproinsulin; also called soluble HLA-DR4
# Assay: competition against 2.5 µM biotinylated invariant chain 98-117 for purified HLA-DR4, L243 capture, DELFIA
# Procedure: A further selection step was applied based on the following novel initiative. […] HLA-DR4 molecules used in this assay were purified from resting, unmanipulated Priess cell pellets, using the immunoaffinity column approach described above in method 1.1. […] Plates were incubated for a further 1 hour at room temperature and washed 5 times in TBST. Europium-conjugated streptavidin (Perkin Elmer Ltd., Hounslow, UK) was added at 1 μg/ml in dissociation-enhanced time-resolved fluoroimmunoassays (DELFIA) assay buffer (Wallac Oy, Turku, Finland) and incubated for 45 minutes at room temperature. Wells were washed a further 5 times in TBST and 100 μl DELFIA enhancement solution added to each well. Fluorescent intensity was measured in a DELFIA fluorimeter.
row,Binder,IC50 [µM]
1,GSLQPLALEGSLQKRGIV (Synthetic peptide; also called PI C19-A3; Proinsulin C19-A3) [preproinsulin peptide C19-A3],0.5
2,QPLALEGSLQKRGIVEQ (Synthetic peptide) [preproinsulin peptide C22-A5],0.4
3,GGGPGAGSLQPLALEGSLQK (Synthetic peptide; also called C13-32) [preproinsulin peptide C13-C32],5
4,DLQVGQVELGGGPGAGSLQPLALE [preproinsulin peptide C4-C27],3
5,EDLQVGQVELGGGPGAGSLQPLAL [preproinsulin peptide C3-C26],3
